Where “and” joins values, the source holds several entries; their conditions need not be identical. Identical values can stand only once.
Key:
[1] = substrate: COc1ccc(C2=CCN(C)CC2)cc1; test: Michaelis-Menten constant was measured against monoamine oxidase B (MAO-B) from beef liver; Inactive
[2] = substrate: CN1CC=C(c2ccc(Br)cc2)CC1; test: (§1) Michaelis-Menten constant was measured against monoamine oxidase B (MAO-B) from beef liver
[3] = substrate: Cc1ccc(C2=CCN(C)CC2)cc1; test: as §1
[4] = substrate: CN1CC=C(c2ccc(Cl)cc2)CC1; test: as §1
[5] = substrate: CCc1ccc(C2=CCN(C)CC2)cc1; test: as §1
[6] = substrate: CN1CC=C(c2ccc(F)cc2)CC1; test: as §1

B1: Amine oxidase [flavin-containing] B (Bos taurus) (protein)
chain: MSSKCDVVVVGGGISGMAAAKLLHDSGLNVIVLEARDRVGGRTYTLRNQKVKYVDLGGSYVGPTQNHILRLSKELGLETYKVNEVERLIHHTKGKSYPFRGSFPSVWNPITYLDHNNLWRTMDDMGREIPSDAPWKAPLAEQWDLMTMKELLDKICWTESSKQLAILFVNLCVTAEIHEVSALWFLWYVKQCGGTTRIFSTSNGGQERKFVGGSGQVSERIMDLLGDRVKLERPVIHIDQTGENVLVETLNHELYEAKYVISAVPPVLGMKIHFNPPLPMMRNQLITRVPLGSVIKSIVYYKEPFWRNMDYCGSMIIEGEEAPVAYALDDTKPDGSYPAIIGFILAHKARKLARLTKEERLKKLCDLYAKVLGSQEALHPVHYEEKNWCEEQYSGGCYTSYFPPGIMTQYGRVLRQPVGRIYFAGTETATHWSGYMEGAVEAGERAAREILHAMGKIPEDEIWLPEPESVDVPAKPITTTFLQRHLPSVPGLLKLIGLTTIFSATALGFLAHKRGLLVRI
Km [1]: 940 µM
kcat [1]: 1.13 s⁻¹
Km [2]: 140 µM
kcat [2]: 1.18 s⁻¹
Km [3]: 500 µM and 490 µM
Km [4]: 180 µM and 200 µM
Km [5]: 1890 µM
kcat [5]: 1.42 s⁻¹
Km [6]: 220 µM
kcat [6]: 1.55 s⁻¹
